The source of these data is patent publication US20200277392A1 (Hoffmann-La Roche, published 2020).

In experiment [1] the target is T1, human OX40 Fc(kih), monomeric Fc-linked human OX40 antigen ECD (human, UniProt P0DOX5 223-449 = IgG part).
T1 construct: Heterodimer of one OX40 ECD (aa 29-214)-AcTEV-Fc knob-Avi chain and one Fc hole chain; Biotinylated at the Avi tag for phage selection and ELISA; also called recombinant OX40 Fc (kih) receptor; biotinylated human OX40
Briefly: ELISA, Fab-containing bacterial supernatants on biotinylated human OX40 on neutravidin plates, anti-Flag/HRP detection. The procedure: Selections were carried out over 3 or 4 rounds using constant antigen concentrations of 100 nM. […] In rounds 2 and 4, in order to avoid enrichment of binders to neutravidin, capture of antigen: phage complexes was performed by addition of 5.4×10⁷ streptavidin-coated magnetic beads. […] Fab-containing bacterial supernatants were added and binding Fabs were detected via their Flag-tags using an anti-Flag/HRP secondary antibody. […] They were bacterially expressed in a 0.5 liter culture volume, affinity purified and further characterized by SPR-analysis using BioRad's ProteOn XPR36 biosensor.
In general terms: In an ELISA, binding on a coated surface is turned into a signal by an enzyme label.

For experiment [2], the target named is T1, human OX40 Fc(kih), monomeric Fc-linked …. The experiment is described as follows: SPR (Biacore T200, 25 °C): bispecific held on immobilised human TnC; human OX40 Fc(kih) at 250 nM injected for 90 s as analyte 2. As for the experimental part:
All SPR experiments were performed on a Biacore T200 at 25° C. with HBS-EP as running buffer (0.01 M HEPES pH 7.4, 0.15 M NaCl, 3 mM EDTA, 0.005% Surfactant P20, Biacore, Freiburg/Germany).
Biotinylated human TnC was directly coupled to a flow cell of a streptavidin (SA) sensor chip. Immobilization levels up to 1000 resonance units (RU) were used.
Bulk refractive index differences were corrected for by subtracting the response obtained in a reference flow cell, where no protein was immobilized.
Background: Surface plasmon resonance follows binding to a sensor surface in real time, without labels.

B1: anti-OX40 clone 20B7, Fab (Fab, V domains shown)
VH: QVQLVQSGAEVKKPGSSVKVSCKASGGTFSSYAISWVRQAPGQGLEWMGGIIPIFGTANYAQKFQGRVTITADKSTSTAYMELSSLRSEDTAVYYCARVNYPYSYWGDFDYWGQGTTVTVSS
VL: DIQMTQSPSTLSASVGDRVTITCRASQSISSWLAWYQQKPGKAPKLLIYDASSLESGVPSRFSGSGSGTEFTLTISSLQPDDFATYYCQQYQAFSLTFGQGTKVEIK
notes: Flag-tagged Fab in bacterial supernatant (phage library DP88-4); also called OX40(20B7)
For B1, the binding result in experiment [1] is listed as “binds”.

B2: anti-OX40 clone 49B4, Fab (Fab, V domains shown)
VH: QVQLVQSGAEVKKPGSSVKVSCKASGGTFSSYAISWVRQAPGQGLEWMGGIIPIFGTANYAQKFQGRVTITADKSTSTAYMELSSLRSEDTAVYYCAREYYRGPYDYWGQGTTVTVSS
VL: DIQMTQSPSTLSASVGDRVTITCRASQSISSWLAWYQQKPGKAPKLLIYDASSLESGVPSRFSGSGSGTEFTLTISSLQPDDFATYYCQQYSSQPYTFGQGTKVEIK
notes: Flag-tagged Fab in bacterial supernatant (phage library DP88-4); also called OX40(49B4)
As for B2, in experiment [1], the binding result is on record as “binds”.

B3: anti-OX40 clone 17A9, Fab (Fab, V domains shown)
VH: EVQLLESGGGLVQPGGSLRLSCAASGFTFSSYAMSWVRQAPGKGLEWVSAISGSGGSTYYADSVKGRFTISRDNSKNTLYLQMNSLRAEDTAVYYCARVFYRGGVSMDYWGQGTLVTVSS
VL: SSELTQDPAVSVALGQTVRITCQGDSLRSYYASWYQQKPGQAPVLVIYGKNNRPSGIPDRFSGSSSGNTASLTITGAQAEDEADYYCNSRVMPHNRVFGGGTKLTV
notes: Flag-tagged Fab in bacterial supernatant (phage library lambda-DP47); also called OX40(17A9)
As to B3, the binding result in experiment [1] is “binds”.

B4: 49B4/TnC 18D4 P329GLALA 4 + 1 (ID7745) (bispecific antibody, human IgG1, kappa, L234A L235A)
heavy 1: not shown
heavy 2: not shown
light: DIQMTQSPSTLSASVGDRVTITCRASQSISSWLAWYQQKPGKAPKLLIYDASSLESGVPSRFSGSGSGTEFTLTISSLQPDDFATYYCQQYSSQPYTFGQGTKVEIKRTVAAPSVFIFPPSDEQLKSGTASVVCLLNNFYPREAKVQWKVDNALQSGNSQESVTEQDSKDSTYSLSSTLTLSKADYEKHKVYACEVTHQGLSSPVTKSFNRGEC
As to B4, the binding result in experiment [2] is “binds”.

B5: anti-OX40 clone 8H9, Fab (Fab, V domains shown)
VH: QVQLVQSGAEVKKPGSSVKVSCKASGGTFSSYAISWVRQAPGQGLEWMGGIIPIFGTANYAQKFQGRVTITADKSTSTAYMELSSLRSEDTAVYYCAREYGWMDYWGQGTTVTVSS
VL: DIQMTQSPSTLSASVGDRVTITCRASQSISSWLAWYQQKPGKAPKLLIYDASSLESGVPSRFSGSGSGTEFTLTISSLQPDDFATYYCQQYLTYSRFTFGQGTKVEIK
notes: Flag-tagged Fab in bacterial supernatant (phage library DP88-4); also called OX40(8H9)
Consider B5, for which the binding result in experiment [1] was “binds”.

B6: anti-OX40 clone 1G4, Fab (Fab, V domains shown)
VH: QVQLVQSGAEVKKPGSSVKVSCKASGGTFSSYAISWVRQAPGQGLEWMGGIIPIFGTANYAQKFQGRVTITADKSTSTAYMELSSLRSEDTAVYYCAREYGSMDYWGQGTTVTVSS
VL: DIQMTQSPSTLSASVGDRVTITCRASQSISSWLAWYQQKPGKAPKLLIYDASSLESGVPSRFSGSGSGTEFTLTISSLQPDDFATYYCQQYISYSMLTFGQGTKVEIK
notes: Flag-tagged Fab in bacterial supernatant (phage library DP88-4); also called OX40(1G4)
Consider B6, for which the binding result in experiment [1] is recorded as “binds”.
